# Where two headings read alike, the source gives them in different places.
# Legend:
# [1] = target: T1, extracellular domain of human CD47 (CD47-ECD), residues 1-118, with His6 tag and Avi tag (human, UniProt Q08722 19-136, biotin modification at the C-terminus (Avi tag, BirA) in the form called CD47-Bio); test: SPR (Biacore T200), IgG1 captured on CM5 chip, CD47 as analyte; the column head also prints x 10^-3, not applied because kd/ka of the cells gives the KD cell in M [Con't]
# T1 construct: also called CD47-ECD-His6; CD47-Bio; not shown: His6 tag and Avi tag from the vector
# [2] = target: T1, extracellular domain of human CD47 …; test: SPR (Biacore T200), IgG1 captured on CM5 chip, CD47 as analyte; the column head also prints x 10^6, not applied because kd/ka of the cells gives the KD cell in M [Con't]
# Description: (§1) 1 μg/mL of anti-CD47 full length IgG1 antibodies were captured onto a CM5 chip for 30 s at 10 μl/min. CD47 in 2-fold serial dilutions (starting at 100 nmol, seven concentrations total) were injected over the antibody-bound surface for 120 s at 30 μl/min followed by a 240 s dissociation phase. After each cycle, the surface was regenerated with magnesium chloride.
# [3] = target: T1, extracellular domain of human CD47 …; test: SIRPα competition ELISA, CD47-ECD-His6 coated, competitor 0.5 nM biotinylated SIRPα-d1-mFc
# Description: (§2) The wash, development and read steps are the same as hCD47 binding ELISA. The OD450 values were transformed to Inhibition % in data analysis.
# (§3) B. Antibodies in the form of full-length IgG1 were 3-fold serial diluted (starting at 40 nM, 12 concentrations total).
# [4] = target: T1, extracellular domain of human CD47 …; test: SPR (Biacore T200), IgG1 captured on CM5 chip, CD47 as analyte; the column head prints KD (nM), but the cell equals kd/ka in M [Con't]
# Description: as §1
# [5] = target: T1, extracellular domain of human CD47 …; test: CD47 binding ELISA, bio-CD47 captured on neutravidin, full-length IgG1
# Description: (§4) CD47 binding ELISA: 2 μg/mL of neutravidin (Sigma) in phosphate buffered saline (PBS) was coated in U-bottom 96-well plate (Nunc, MaxiSorp™), 100 μL per well, at 4° C. overnight or 37° C. for 1 hour. 2 μg/mL of bio-CD47 in PBS containing 2% nonfat milk were then captured onto the plates at 100 μL per well by incubation at 30° C. for 1 hour. […] In between each incubation step, the ELISA plate was washed for 6 times with PBST solution (0.05% Tween20 containing PBS) at 200 μL per well. Followed by HRP-conjugated antibody incubation, the ELISA signal was developed by incubating with TMB substrate (Sigma) for 5-10 mins at 30° C. and then stop the reaction with 2M H₂SO₄ at 50 μL per well. The absorbance at 450 nm was read by a microplate reader (Bio-Rad). For scFv-Fc or IgG1 based ELISA, the method was basically the same as described above for phage-scFvs except the bound antibodies were detected by HRP-conjugated mouse anti-human IgG Fc antibody (Sigma).
# (§5) In FIG. 3, A. Antibodies in the form of full-length IgG1 were 3-fold serial diluted (starting at 10 nM, 12 concentrations total). B. Antibodies in the form of full-length IgG1 were 3-fold serial diluted (starting at 40 nM, 12 concentrations total).
# [6] = target: T1, extracellular domain of human CD47 …; test: self-competition of unlabelled SIRPα against labelled SIRPα for CD47 (% inhibition); the sheet prints only SIRPα, taken as the unlabelled SIRPα-d1-mFc of the competition ELISA of Example 1
# [7] = target: extracellular domain of human CD47 (CD47-ECD), residues 1-118, with His6 tag and Avi tag (human) (UniProt Q08722); test: competition of the CD47/SIRPα interaction (% inhibition); the format is not stated for this panel, taken as the SIRPα competition ELISA of Example 1 with labelled SIRPα as competitor
# [8] = target: extracellular domain of human CD47 (CD47-ECD), residues 1-118, with His6 tag and Avi tag (human) (UniProt Q08722); test: SPR (Biacore), scFv-hFc captured on anti-human IgG Fc CM5 chip, CD47 as analyte, 1:1 model; column head x 10^-3 applied
# [9] = target: extracellular domain of human CD47 (CD47-ECD), residues 1-118, with His6 tag and Avi tag (human) (UniProt Q08722); test: SPR (Biacore), scFv-hFc captured on anti-human IgG Fc CM5 chip, CD47 as analyte, 1:1 model; column head x 10^6 applied
# [10] = target: extracellular domain of human CD47 (CD47-ECD), residues 1-118, with His6 tag and Avi tag (human) (UniProt Q08722); test: SPR (Biacore), scFv-hFc captured on anti-human IgG Fc CM5 chip, CD47 as analyte, 1:1 Langmuir model
# [11] = target: extracellular domain of human CD47 (CD47-ECD), residues 1-118, with His6 tag and Avi tag (human) (UniProt Q08722); test: phage-scFv ELISA on captured CD47-Bio
# [12] = target: T1, extracellular domain of human CD47 …; test: CD47 binding ELISA, bio-CD47 captured on neutravidin, full-length IgG1; remark: listed apart in the source
# Description: as §4, §5
# [13] = target: T1, extracellular domain of human CD47 …; test: SPR (Biacore T200), IgG1 captured on CM5 chip, CD47 as analyte [Con't]
# Description: SPR was performed on a Biacore T200. 1 μg/mL of anti-CD47 full length IgG1 antibodies were captured onto a CM5 chip for 30 s at 10 μl/min. CD47 in 2-fold serial dilutions (starting at 100 nmol, seven concentrations total) were injected over the antibody-bound surface for 120 s at 30 μl/min followed by a 240 s dissociation phase. After each cycle, the surface was regenerated with magnesium chloride.
# [14] = target: T1, extracellular domain of human CD47 …; test: SIRPα competition ELISA, CD47-ECD-His6 coated, competitor 0.8 nM biotinylated SIRPα-d1-mFc
# Description: as §2, §3
binder,measurement,setting,value
"AB6.12 (antibody, V domains shown) VH: QMQLVQSGAEVKKTGSSVKVSCKASGFNIKDYYLHWVRQAPGQALEWMGWIDPDQGDTEYAQKFQDRVTITRDRSMSTAYMELSSLRSEDTAMYYCNAAYGSSSYPMDYWGQGTTVTVSS VL: NIQMTQSPSAMSASVGDRVTITCKASQDIHRYLSWFQQKPGKVPKHLIYRANRLVSGVPSRFSGSGSGTEFTLTISSLQPEDFATYYCLQYDEFPYTFGGGTKVEIKR",koff,[1],0.00186 s⁻¹
same,kon,[2],1.06e+06 M⁻¹ s⁻¹
same,IC50 (read off the curve),[3],~6 nM
same,Kd,[4],1.76 nM
same,EC50 (read off the curve),[5],~0.2 nM
"SIRPα-d1-mFc fusion protein (Fc fusion, human, UniProt P78324 31-148, looked up, biotinylated with Sulfo-NHS-SS-Biotin where used as the labelled ligand, range 1-148; also called bio-SIRPα-d1-mFc; biotinylated SIRPα-d1-mFc; not shown: mouse IgG2a Fc fragment) EEELQVIQPDKSVLVAAGETATLRCTATSLIPVGPIQWFRGAGPGRELIYNQKEGHFPRVTTVSDLTKRNNMDFSIRIGNITPADAGTYYCVKFRKGSPDDVEFKSGAGTELSVRAKP",IC50 (read off the curve),[6],~4 nM
"BC18 scFv-hFc (Fc fusion, part only; not given: scFv linker, domain order, IgG1 Fc, not shown: another chain or arm of the molecule; a dimerising Fc or GST; small tags and cut ends) VH: QVQLQQSGPGLVKPSETLSLTCTVSGDSINYHYWSWIRQPPGKGLEWIGYIYYSGSTTYNPSLKSRVTMSVDPSKNHFSLKLTSVTAADTALYFCARQRGAYDYWGQGTQVTVSS VL: DIQLTQSPSSVSASVGDRVTIACRASQDIGSRLVWYQQRPGKAPKLLIYAASSLQSGVPSRFSGSGSGTDFTLTISSLQPEDFATYYCQQSYSTPYSFGQGTKLEIK",IC50 (read off the curve),[7],10 nM
same,koff,[8],0.00328 s⁻¹
same,kon,[9],2.41e+06 M⁻¹ s⁻¹
same,Kd,[10],1.43 nM
"BC18 phage-scFv (scFv, part only; not given: scFv linker, domain order, phage fusion, V domains shown, not shown: another chain or arm of the molecule; large carriers; small tags and cut ends) VH: QVQLQQSGPGLVKPSETLSLTCTVSGDSINYHYWSWIRQPPGKGLEWIGYIYYSGSTTYNPSLKSRVTMSVDPSKNHFSLKLTSVTAADTALYFCARQRGAYDYWGQGTQVTVSS VL: DIQLTQSPSSVSASVGDRVTIACRASQDIGSRLVWYQQRPGKAPKLLIYAASSLQSGVPSRFSGSGSGTDFTLTISSLQPEDFATYYCQQSYSTPYSFGQGTKLEIK",optical density at 450 nm,[11],> 0.2 OD450
"BC7 phage-scFv (scFv, part only; not given: scFv linker, domain order, phage fusion, V domains shown, not shown: another chain or arm of the molecule; large carriers; small tags and cut ends) VH: QVQLQQSGPGLVKPSETLSLTCTVSGDSINYHYWSWIRQPPGKGLEWIGYIYYSGSTTYNPSLKSRVTMSVDPSKNHFSLKLTSVTAADTALYFCARQRGAYDYWGQGTLVTVSS VL: DIVMTQSPSSVSASVGDRVTITCRASQGIGSRLAWYQQKPGKAPQLLIYAASSLQSGVPSRFSGSGSGTEFTLTISSLQPDDFATYYCQQYNSFSPITFGQGTRLEIK",optical density at 450 nm,[11],> 0.2 OD450
"BC7 scFv-hFc (Fc fusion, part only; not given: scFv linker, domain order, IgG1 Fc, not shown: another chain or arm of the molecule; a dimerising Fc or GST; small tags and cut ends) VH: QVQLQQSGPGLVKPSETLSLTCTVSGDSINYHYWSWIRQPPGKGLEWIGYIYYSGSTTYNPSLKSRVTMSVDPSKNHFSLKLTSVTAADTALYFCARQRGAYDYWGQGTLVTVSS VL: DIVMTQSPSSVSASVGDRVTITCRASQGIGSRLAWYQQKPGKAPQLLIYAASSLQSGVPSRFSGSGSGTEFTLTISSLQPDDFATYYCQQYNSFSPITFGQGTRLEIK",koff,[8],0.006 s⁻¹
same,kon,[9],1.84e+06 M⁻¹ s⁻¹
same,Kd,[10],3.27 nM
"BC7 full-length human IgG1 (antibody, V domains shown) VH: QVQLQQSGPGLVKPSETLSLTCTVSGDSINYHYWSWIRQPPGKGLEWIGYIYYSGSTTYNPSLKSRVTMSVDPSKNHFSLKLTSVTAADTALYFCARQRGAYDYWGQGTLVTVSS VL: DIVMTQSPSSVSASVGDRVTITCRASQGIGSRLAWYQQKPGKAPQLLIYAASSLQSGVPSRFSGSGSGTEFTLTISSLQPDDFATYYCQQYNSFSPITFGQGTRLEIK",EC50 (read off the curve),[12],~0.01 nM
same,Kd,[13],4.81 nM
same,koff,[13],0.00394 s⁻¹
same,kon,[13],816000 M⁻¹ s⁻¹
same,IC50 (read off the curve),[14],~4 nM
"BC7m04 (antibody, IgG1, V domains shown) VH: QVQLQQSGPGLVKPSETLSLTCTVSGDSINYHYWSWIRQPPGKGLEWIGYIYYSGSTTYNPSLKSRVTMSVDPSKNHFSLKLTSVTAADTALYFCARQRGAYDYWGQGTLVTVSS VL: DIVMTQSPSSVSASVGDRVTITCRASQDIGSRLAWYQQKPGKAPKLLIYAASSLQSGVPSRFSGSGSGTDFTLTISSLQPEDFATYYCQQYNSFSPITFGQGTRLEIK",Kd,[13],1.55 nM
same,koff,[13],0.00118 s⁻¹
same,kon,[13],763000 M⁻¹ s⁻¹
"BC18m03 (antibody, IgG1, V domains shown) VH: QVQLQESGPGLVKPSETLSLTCTVSGDSINYHYWSWIRQPPGKGLEWIGYIYYSGSTTYNPSLKSRVTMSVDPSKNHFSLKLTSVTAADTALYFCARQRGAYDYWGQGTLVTVSS VL: DIQLTQSPSSVSASVGDRVTIACRASQDIGSRLVWYQQRPGKAPKLLIYAASSLQSGVPSRFSGSGSGTDFTLTISSLQPEDFATYYCQQSYSTPYSFGQGTKLEIK",Kd,[13],1.6 nM
same,koff,[13],0.00122 s⁻¹
same,kon,[13],762000 M⁻¹ s⁻¹
"BC7m03 (antibody, IgG1, V domains shown) VH: QVQLQQSGPGLVKPSETLSLTCTVSGDSINYHYWSWIRQPPGKGLEWIGYIYYSGSTTYNPSLKSRVTMSVDPSKNHFSLKLTSVTAADTALYFCARQRGAYDYWGQGTLVTVSS VL: DIVMTQSPSSVSASVGDRVTITCRASQDIGSRLAWYQQKPGKAPQLLIYAASSLQSGVPSRFSGSGSGTEFTLTISSLQPDDFATYYCQQYNSFSPITFGQGTRLEIK",Kd,[13],1.46 nM
same,koff,[13],0.00118 s⁻¹
same,kon,[13],806000 M⁻¹ s⁻¹
B6H12 (antibody) EVQLVESGGDLVKPGGSLKLSCAASGFTFSGYGMSWVRQTPDKRLEWVATITSGGTYTYYPDSVKGRFTISRDNAKNTLYLQIDSLKSEDTAIYFCARSLAGNAMDYWGQGTSVTVSSGGGGSGGGGSGGGGSDIVMTQSPATLSVTPGDRVSLSCRASQTISDYLHWYQQKSHESPRLLIKFASQSISGIPSRFSGSGSGSDFTLSINSVEPEDVGVYYCQNGHGFPRTFGGGTKLEIK,EC50 (read off the curve),[12],~0.02 nM

# Source: patent US20240076412A1 (NATIONAL INSTITUTE OF BIOLOGICAL SCIENCES BEIJING, published 2024)
